# Assays:
# [1] = Protein melting point by DSC; type: physicochemical
# Method: Differential scanning calorimetry study of SP1 indicates in a Tm of 107° C. for SP1. […] Further, folding and refolding of inclusion bodies including insoluble SP1, and the heat stability of the unfolded proteins indicate that the intact monomer, as well as the oligomer, is heat resistant (FIG. 5).
# [2] = SP1 stability following exposure to SDS and heating; type: physicochemical
# Method: The stability of the SP1 complex in the presence of SDS was examined by incubating purified SP1 with SDS at different molar ratios and at different temperatures. Dissociation of the SP1 complex to monomers required a molar ratio greater than 600:1 (SDS:SP1-monomer) accompanied by boiling before loading onto the gel.
# [3] = Fluorescein-amine complex formation (ultrafiltration, size exclusion HPLC); type: binding
# Method: FIG. 9 is a histogram showing redox-dependent complex formation with small molecules by Cys2 SP1. Pure Cys 2 mutant (1.5 mg/ml in Phosphate buffered saline, pH=7.5 (PBS)) was incubated for 2 hours at room temp, with I mM fluorescein-amine with or without glutathione (reduced form, GSH 3 mM). Binding reaction was stopped by adding hydrogen peroxide (0.01%), followed by ultra filtration (using a 30 kD cutoff filter) and extensive wash. Absorption analysis was conducted at both 278 and 492 nm, and the results expressed as the 492/278 ratio. Note that in the absence of the reducing agent (GSH), retention of the flourescein-amine is negligible;
# FIG. 10 is a graphic representation of the redox-dependent fluorescein amine complex formation by Cys2 SP1, compared to the recombinant SP1. Fluorescein-amine was incubated with pure SP1 or Cys2 SP1 mutant (1.5 mg/ml in PBS pH=7.5) in the absence or presence of DTT (10 mM). Binding reaction was stopped by adding hydrogen peroxide (0.01%), followed by ultra filtration (using 30 kD cutoff filter) and extensive wash. Samples were analyzed by Gel filtration HPLC, and detected at both 228 and 490 nm. Calculated data is shown on the right.
# FIG. 11 is a histogram illustrating the concentration dependent complex formation with fluorescein-amine by Cys2 SP1. Huorescien-amine (10, 33, 100 or 333 mM) was incubated with Cys 2 SP1 or pure wild type SP1 in the presence of 10 mM DTT, and the bound and unbound fractions analyzed by ultra-filtration and HPLC as in FIG. 10.
# Ultrafiltration was used for the detection of complex formation with the water soluble ligands FA and DOX which have a distinctive absorption properties and can be determined by spectroscopic measurements. […] Several additional washing cycles remove all remaining free FA and DOX, and the ligand-SP1 complex remains in the retained fraction.
# Size exclusion chromatography is a common method for separation of molecules of different sizes under mild conditions and was employed to test FA and DOX complex formation under mild conditions. SP1 is eluted from the column after 7 min and is detected at 278 nm only, and free FA is eluted from the column (TSK G3000 SWXL, Tosohaas) after 16 min and is detected at 490 nm. The SP1-FA and SP1-DOX complexes also eluted at the same time but is detected also at 490 and 475 nm, respectively. DOX/SP1 ratio is determine from the standard curve obtained in solution.
# 5. Can complexed ligand be stabilized by association with the Cys2 SP1? Fluoresceine amine (FA): FA absorption peak is at 490 nm and at much lower extend at 278 nm (for a given FA concentration OD278/OD490=0.19)(see FIG. 31), when SP1 absorption peak is at 278 nm (see FIG. 30), and it is not detected at 490 nm. […] FA complexing with the Cys2 Sp1 variant was determined following incubation of FA and Cys2 SP1 variant in the absence or presence of GSH, followed by protein oxidation, ultra filtration (30 kDa cutoff) and exhaustive wash of the retained fraction with PBS with or without GSH. Absorption analysis at both 278 and 490 nm.
# [4] = tested on: Human colon adenocarcinoma (HT-29) cells; assay: In-vitro cytotoxicity in HT-29 cells; type: cell-based; conditions: HT-29 cells, dose inhibiting 50% of cell growth
# Text: FIGS. 24a and 24b are graphs illustrating the in-vitro cytotoxic effects of SP1-DOX complex. FIG. 24a—HT-29 cells cultured in 96 well microtiter plates were exposed to uncomplexed DOX (closed oval, magenta) or SP1-DOX complex (closed triangle, blue) prepared as described in FIGS. 9-15, at the indicated concentrations. FIG. 24b—HT-29 cells were exposed to uncomplexed SP1 (without DOX) (closed diamond, blue) or SP1-DOX complex (closed triangle, yellow) at indicated concentrations. Proportion of living cells was determined by MTT assay, and the IC50 was calculated.
# HT-29 cells were prepared as in FIG. 24 above.
# Human colon adenocarcinoma (HT-29) cells. The cells were grown in 50-ml flasks containing DMEM medium (Biological Industries, Bet Haemek), supplemented with 10% fetal calf serum, 1% glutamine and 1% Antibiotic-Antimicotic solution (Biolab, Israel). The cells were trypsinizated, and 2 ml medium containing 5×10^4 cells were plated in each well of a 6-wells plate. SP1, drugs or SP1-complexed with drugs was added at the indicated concentrations. The cells were incubated at 37° C. in a humidified atmosphere containing 5% CO2.After 48 hours the medium in the presence or absence of drugs was replaced in each well respectively, to maintain a constant supply of ingredients and drugs. After four days the medium was removed and the number of viable cells in the cultures was determined by spectroscopy.
# The human colorectal adenocarcinoma cell line, HT-29, was used to evaluate the biological activity of the SP1-DOX complex, compared to that of the free drug and un-complexed SP1 protein. […] Thus, the SP1-DOX complex is at least as biologically active as free DOX.
# [5] = Immunogenicity: anti SP1 antibody production by ELISA; type: in vivo, C57B1 mice; conditions: after repetitive injections
# Text: In order to determine the degree of immunogenicity of SP1, anti SP1 antibody production in both PBS- and SP1-treated animals was detected using ELISA, using either directly immobilized SP1 or rabbit anti SP1 antibodies (second antibody was HRP conjugated anti mouse IgG). Serum obtained from both PBS- and SP1-treated animals had negligible anti-SP1 antibody reaction, with no difference between the two groups.
substance,measurement,setting,value
"wild type: stress related SP1 protein from aspen (Populus tremula), recombinant, SEQ ID NO:1",Tm,[1]; Differential scanning calorimetry,107 °C
same,Tm,"[1]; protein melting point by DSC, in °C (unit assumed)",107
same,disassociation of the complex,"[2]; 1734-fold SDS (1%), temperatures of 80° C. or lower",did not cause significant disassociation of the complex
same,molar ratio (SDS:SP1-monomer) required for dissociation of the complex to monomers,[2]; accompanied by boiling before loading onto the gel,greater than 600
same,state of SP1 on SDS-PAGE,"[2]; without boiling, SDS ratio of 3467 to 1",remained as a complex
same,FA complexing at low ligand concentration,"[3]; 10 μM FA, 10 mM DTT",no discernable FA complexing
same,complex formation with the FA marker,"[3]; presence or absence of reducing agents, size exclusion chromatography",hardly forms complexes
same,IC50,[4]; listed as SP1,inactive
same,IC50,[4]; listed as SP-1,absence of cytotoxicity
same,anti-SP1 antibody reaction in serum,[5],negligible
